Values of other authors as cited in paper PMC7149769.

Legend:
[1] = target: Factor Xa (Homo sapiens) (UniProt P00742)
[2] = target: Factor X (Homo sapiens) (UniProt P00742)

| Substance | Kd [1] [nM] | Kd [2] [nM] |
| --- | --- | --- |
| Factor Va (from UniProt P12259) | 1 |  |
| Mac-1 (from UniProt P11215) |  | 30 |
